Our source for the Kd values is the Immune Epitope Database (IEDB).

One assay concerns the target HLA-A*02:01. The assay is described as follows: IEDB peptide-MHC binding, purified MHC/direct/fluorescence; filed as Kd, often an IC50 or EC50 that approximates it; ≥ and ≤ were set here for values at or beyond the usual limits of such assays.
The target of assay [1] is HLA-A*02:03. The description is as above.
Another assay has as its target HLA-A*02:12. The description is as above.
A further assay deals with HLA-A*02:16. The assay is described as above.
In another assay the target is HLA-A*02:19. Described as above.
A further assay deals with HLA-A*03:01. The description is as above.
The target of another assay is HLA-A*26:01. The description is as above.
The next assay concerns the target HLA-B*15:01. The assay is described as above.
For the next assay, the target named is HLA-B*18:01. The description is as above.
For another assay, the target named is HLA-B*27:03. The assay is described as above.
The target of another assay is HLA-B*46:01. The description is as above.
The next assay deals with HLA-B*51:01. Described as above.
The target of a further assay is HLA-B*57:01. Described as above.
For the next assay, the target named is HLA-A*02:11. The assay is described as above.
The next assay has as its target HLA-A*24:03. Described as above.
The next assay addresses HLA-A*68:02. The assay is described as above.
For the next assay, the target named is HLA-A*69:01. The description is as above.
Another assay deals with HLA-B*15:17. The description is as above.
In a further assay the target is HLA-B*39:01. Described as above.
Assay [2] deals with HLA-B*48:01. Description: IEDB peptide-MHC binding, purified MHC/competitive/fluorescence; filed as Kd, often an IC50 or EC50 that approximates it; ≥ and ≤ were set here for values at or beyond the usual limits of such assays.
A further assay deals with HLA-A*01:01. The assay is described as follows: IEDB peptide-MHC binding, purified MHC/direct/fluorescence; filed as Kd, often an IC50 or EC50 that approximates it; ≥ and ≤ were set here for values at or beyond the usual limits of such assays.
A further assay addresses HLA-B*07:02. The description is as above.
Another assay concerns the target HLA-B*08:03. Described as above. Conditions: source organism: Influenza A virus(A/swine/Shandong/fZC/2003(H9N2)).
Another assay has as its target HLA-B*27:05. Described as above.
The next assay addresses HLA-B*40:01. The assay is described as above.
The next assay concerns the target HLA-B*58:01. The assay is described as above.
For a further assay, the target named is HLA-A*30:01. The assay is described as follows: IEDB peptide-MHC binding, purified MHC/competitive/fluorescence; filed as Kd, often an IC50 or EC50 that approximates it; ≥ and ≤ were set here for values at or beyond the usual limits of such assays. Conditions: source organism: Influenza A virus (A/X-31(H3N2)).
Another assay has as its target HLA-A*29:02. Description: IEDB peptide-MHC binding, purified MHC/direct/fluorescence; filed as Kd, often an IC50 or EC50 that approximates it; ≥ and ≤ were set here for values at or beyond the usual limits of such assays. Particulars: source organism: Bacillus anthracis str. 'Ames Ancestor'.
The target of another assay is HLA-A*11:01. The assay is described as above. Particulars: source organism: Mycobacterium tuberculosis.
Another assay addresses HLA-A*31:01. The assay is described as above. Particulars: source organism: Mycobacterium tuberculosis.
The target of another assay is HLA-B*08:01. The description is as above. Particulars: source organism: Mycobacterium tuberculosis str. Haarlem.
The target of another assay is HLA-B*15:09. Described as above. Conditions: source organism: Mycobacterium tuberculosis str. Haarlem.
Another assay has as its target HLA-B*44:02. The assay is described as above. Conditions: source organism: Mycobacterium tuberculosis.
For assay [3], the target named is HLA-B*48:01. Described as above. Particulars: source organism: Mycobacterium tuberculosis.
The target of assay [4] is HLA-A*02:03. Description: IEDB peptide-MHC binding, purified MHC/competitive/fluorescence; filed as Kd, often an IC50 or EC50 that approximates it; ≥ and ≤ were set here for values at or beyond the usual limits of such assays. Particulars: source organism: Mycobacterium tuberculosis variant bovis BCG str. Pasteur 1173P2.
Where [5] appears, read: source organism: Vibrio vulnificus YJ016.
The mark [6] stands for this setting: source organism: Burkholderia mallei ATCC 23344.
The mark [7] stands for this setting: source organism: Encephalitozoon cuniculi GB-M1.
Where [8] appears, read: source organism: Influenza A virus (A/duck/Vietnam/15/2003(H5N1)).
Setting [9] is: source organism: Bacillus anthracis str. 'Ames Ancestor'.
The mark [10] stands for this setting: source organism: Mycobacterium tuberculosis.
Setting [11] is: source organism: Mycobacterium tuberculosis str. Haarlem.

A value given as a limit tells only on which side of the number the result lay.

As usually defined, the Kd is the equilibrium constant for the complex coming apart. Regarding FPLWNTEKI, the Kd with HLA-A*02:01 (setting [5]), with HLA-A*02:03 [1] (setting [5]), in the assay with HLA-A*02:12 (setting [5]), with HLA-A*02:16 (setting [5]), in the assay with HLA-A*02:19 (setting [5]) and in the assay with HLA-A*03:01 (setting [5]) was no less than 20 µM throughout. Also, the Kd in the assay with HLA-A*26:01 (setting [5]) was no less than 20 µM; in the assay with HLA-B*15:01 (setting [5]) it was no less than 20 µM; with HLA-B*18:01 (setting [5]) it was no less than 20 µM; with HLA-B*27:03 (setting [5]), no less than 20 µM; with HLA-B*46:01 (setting [5]), no less than 20 µM; with HLA-B*51:01 (setting [5]) it was 71 nM. In addition, the Kd with HLA-B*57:01 (setting [5]) was no less than 20 µM.
Take LVTGAGSGF: the Kd with HLA-A*02:01 (setting [6]), in the assay with HLA-A*02:03 [1] (setting [6]), with HLA-A*02:11 (setting [6]), with HLA-A*02:12 (setting [6]), in the assay with HLA-A*02:16 (setting [6]) and with HLA-A*02:19 (setting [6]) was no less than 20 µM each time. In addition, the dissociation constant Kd with HLA-A*03:01 (setting [6]) was no less than 20 µM; in the assay with HLA-A*24:03 (setting [6]), no less than 20 µM; in the assay with HLA-A*26:01 (setting [6]), no less than 20 µM; in the assay with HLA-A*68:02 (setting [6]), no less than 20 µM; with HLA-A*69:01 (setting [6]) it was no less than 20 µM; in the assay with HLA-B*15:17 (setting [6]) it was 148 nM. Besides, the Kd with HLA-B*18:01 (setting [6]), in the assay with HLA-B*27:03 (setting [6]), with HLA-B*39:01 (setting [6]), in the assay with HLA-B*46:01 (setting [6]) and with HLA-B*57:01 (setting [6]) was no less than 20 µM throughout.
In the case of RNMSRIFPY, the Kd with HLA-A*02:03 [1] (setting [7]), with HLA-A*02:12 (setting [7]), with HLA-A*02:16 (setting [7]), with HLA-A*02:19 (setting [7]), with HLA-A*03:01 (setting [7]) and with HLA-A*69:01 (setting [7]) was no less than 20 µM in each case. Moreover, the Kd was 180 nM with HLA-B*15:17 (setting [7]), no less than 20 µM with HLA-B*27:03 (setting [7]), no less than 20 µM in the assay with HLA-B*39:01 (setting [7]) and no less than 20 µM with HLA-B*46:01 (setting [7]).
On to RQVWWKALL, for which the Kd in the assay with HLA-B*48:01 [2] (source organism: Vibrio cholerae MAK 757) was determined as 22.6 nM.
In the case of SHEGEGIPL, the Kd in the assay with HLA-A*01:01 (setting [8]), in the assay with HLA-A*02:01 (setting [8]), with HLA-A*03:01 (setting [8]), in the assay with HLA-A*26:01 (source organism: Influenza A virus(A/swine/Shandong/fZC/2003(H9N2))), with HLA-A*68:02 (setting [8]) and in the assay with HLA-A*69:01 (setting [8]) was no less than 20 µM throughout. In addition, the Kd in the assay with HLA-B*07:02 (setting [8]) was no less than 20 µM; with HLA-B*08:03, no less than 20 µM; in the assay with HLA-B*15:01 (setting [8]), no less than 20 µM; with HLA-B*15:17 (setting [8]) it was no less than 20000 nM; with HLA-B*18:01 (setting [8]) it was no less than 20 µM; with HLA-B*27:05 (setting [8]), no less than 20 µM. Also, the Kd in the assay with HLA-B*39:01 (setting [8]) was 0.0995 µM; with HLA-B*40:01 (setting [8]) it was no less than 20 µM; with HLA-B*46:01 (setting [8]), no less than 20 µM; with HLA-B*57:01 (setting [8]), no less than 20 µM; with HLA-B*58:01 (setting [8]), no less than 20 µM; with HLA-A*30:01, no less than 20 µM. The sequence further gave a Kd with HLA-B*48:01 [2] (source organism: Influenza A virus (A/X-31(H3N2))) of no less than 20000 nM.
Regarding TKAGMAQYL, the Kd in the assay with HLA-A*02:01 (setting [9]), with HLA-A*02:03 [1] (setting [9]), with HLA-A*02:11 (setting [9]), in the assay with HLA-A*02:12 (setting [9]), with HLA-A*02:16 (setting [9]) and with HLA-A*02:19 (setting [9]) was no less than 20 µM in each case. The Kd with HLA-A*03:01 (setting [9]), with HLA-A*24:03 (setting [9]), with HLA-A*26:01 (setting [9]), with HLA-A*29:02, with HLA-A*69:01 (setting [9]) and with HLA-B*15:01 (setting [9]) was no less than 20 µM throughout. The Kd with HLA-B*15:17 (setting [9]) is no less than 20000 nM; with HLA-B*18:01 (setting [9]) it was no less than 20 µM; with HLA-B*27:03 (setting [9]), no less than 20 µM; with HLA-B*46:01 (setting [9]), no less than 20 µM; with HLA-B*51:01 (setting [9]) it was no less than 20000 nM; with HLA-B*57:01 (setting [9]), no less than 20 µM.
As to WEITYLGTT, the Kd with HLA-A*01:01 (setting [10]), with HLA-A*02:01 (setting [10]), with HLA-A*03:01 (setting [10]), with HLA-A*11:01, with HLA-A*26:01 (setting [11]) and in the assay with HLA-A*31:01 was no less than 20 µM each time. The Kd in the assay with HLA-A*68:02 (setting [10]) is no less than 20 µM; with HLA-A*69:01 (setting [10]) it was no less than 20 µM; in the assay with HLA-B*07:02 (setting [10]), no less than 20 µM; in the assay with HLA-B*08:01, no less than 20 µM; in the assay with HLA-B*15:01 (setting [10]), no less than 10 µM; with HLA-B*15:09, no less than 20 µM. In addition, the Kd in the assay with HLA-B*15:17 (setting [10]) is no less than 20000 nM; with HLA-B*18:01 (setting [10]) it was 0.297 µM; with HLA-B*27:05 (setting [10]), no less than 20 µM; with HLA-B*39:01 (setting [11]), no less than 20 µM; in the assay with HLA-B*40:01 (setting [10]) it was 3.26 µM; with HLA-B*44:02 it was no less than 20 µM. Also, the Kd in the assay with HLA-B*48:01 [3], with HLA-B*57:01 (setting [10]), with HLA-B*58:01 (setting [10]) and in the assay with HLA-A*02:03 [4] was no less than 20 µM in each case.
